We go through 2 substances from article PMC3795524.

Assay [1] concerns the target KNH1144 SOSIP.IEGR G-MPER gp140 (uncleaved) (HIV-1 KNH1144 (subtype A)). The assay is described as follows: AUC.
Assay [2] has the same target. The assay is described as follows: native gel or EMSA. A general note: In EMSA bound probe runs differently from free probe, usually more slowly.
Assay [3] deals with KNH1144 SOSIP.R6 G-MPER gp140 (cleaved) (HIV-1 KNH1144 (subtype A)). The assay is described as follows: AUC.
Assay [4] shares this target. Description: native gel or EMSA.

For the substance “KNH1144 SOSIP.IEGR G-MPER gp140 (uncleaved) (domain or fragment)”, the stoichiometry N in assay [1] and in assay [2] was 3 in each case.
As to “KNH1144 SOSIP.R6 G-MPER gp140 (cleaved) (complex)”, the stoichiometry N in assay [3] and in assay [4] was 3 in each case.

What is called stoichiometry N is the number of molecules, sites or subunits per partner or assembly.
